These are literature values, as cited in article PMC2742733.

This data set addresses TEM-8 (Homo sapiens) (UniProt Q9H6X2).

pKd: −log10 of the molar value.

As for “Protective antigen (PA) (from UniProt P13423)”, the pKd (usually the Kd on a negative log10 scale, so that one unit is a factor of ten) is 6.89.
